From patent US11279941B2, “Method for introducing protein into plant cell” (RIKEN, priority 2016, dated 2022)

How the values were obtained:
[1] = Zeta potential by laser Doppler microelectrophoresis; format: physicochemical; conditions: protein not forming the complex (no carrier peptide)
Description: (§1) A solution of 1.0 g/l of the peptide ((BP100)2K or BP100(KH)9) was mixed with 2 μg of the protein (the BSA-RhB conjugate) at various peptide/protein molar ratios (1, 5, 10, and 25) at 25° C. for about 5 minutes to prepare carrier peptide/protein complexes, and the resultants were diluted to the final volume of 100 μl with autoclaved ultrapure water (MilliQ water). Thereafter, 10 µl of the solution was taken and further diluted to the final volume of 100 μl. The average hydrodynamic diameter of the complexes was measured via dynamic light scattering (DLS) using Zetasizer Nano-ZS (Malvern Instruments, Ltd., Worcestershire, U.K.). Polydispersion indexes (PDI) were determined with the zeta nanosizer (Zetasizer software ver 6.20) using He—Ne laser (633 nm) at 25° C. and a backscattering detection angle of 173°. Thereafter, the sample was further diluted to the total volume of 750 μl with autoclaved ultrapure water (MilliQ water), and the zeta potential was analyzed via laser Doppler microelectrophoresis using Zetasizer Nano-ZS. The zeta potential and zeta shift of the samples were measured three times and the average was determined with Zetasizer software ver 6.20.

[2] = Hydrodynamic diameter and PDI by dynamic light scattering (DLS); format: physicochemical; conditions: protein not forming the complex (no carrier peptide)
Description: as §1

[3] = tested on: YFP-expressing Arabidopsis thaliana leaf; assay: Quantification of peptide delivery efficiency (protein extracted from contacted leaf, PAGE fluorescence); format: in vivo; conditions: 6 hours after contact; for peptide/protein molar ratio at which the amount of the collected protein was the greatest: BSA-RhB
Description: (§2) About 100 μl of the solution of the carrier peptide/protein complex (the (BP100)2K/BSA-RhB or BP100(KH)9/BSA-RhB complex) prepared in Example 1 was brought into direct contact with an YFP-expressing Arabidopsis thaliana leaf at various peptide/protein molar ratios (1, 5, 10, and 25) with a needleless syringe. Also, about […] of the solution of the carrier peptide/protein complex (the (BP100)2Ks/ADH-RhB complex) prepared in Example 1 was brought into direct contact with an YFP-expressing Arabidopsis thaliana leaf at the peptide/protein molar ratio of 10.
A transgenic YFP-expressing Arabidopsis thaliana leaf was collected 6 hours after bringing it into contact with the (BP100)2K8/BSA-RhB or BP100(KH)9/BSA-RhB complex, and the leaf was washed 2 times with PBS (D-PBS(−), Wako Pure Chemical Industries Ltd., Osaka, Japan) to remove excess BSA-RhB on the leaf surface. Total crude protein extracted from the contacted leaf with 1× lysis buffer (Promega, Madison, U.S.A.) was subjected to 4 to 15% tris-glycine-sodium dodecyl sulfate (SDS)-polyacrylamide gel electrophoresis (PAGE) (Bio-rad, California, U.S.A.) at a constant voltage of 100 V. Thereafter, the BSA-RhB fluorescence was detected at the excitation light of 520 nm and the emission light of 605 nm with the Luminoimage analyzer (LAS-3000, Fujifilm Corporation, Tokyo, Japan). After detecting the fluorescence, the gel was stained with Coomassie blue G250 (Bio-rad, California, U.S.A.) to detect the Rubisco large subunit. The BSA-RhB fluorescence band density and the Coomassie blue-stained rbcL band density were quantified using Image J64 (NIH, Bethesda, Md.), and the BSA-RhB band density was normalized against the rbcL band density. SDS-PAGE was performed again based on the normalized data. The volume of the subjected crude protein in each sample was adjusted, in such a manner that the band density of Coomassie blue-stained rbcL bands would be equivalent to each other among all the tested samples, so as to attain the BSA-RhB band having the normalized fluorescence intensity. […] The total amount of the BSA-RhB protein collected from the contacted leaf was calculated in accordance with the formulae below.
The total amount (μg) of the BSA-RhB protein extracted per contacted leaf=(the amount (μg) of the protein corresponding to the RhB intensity measured per lane of the gel/the volume (μl) of the subjected crude protein per lane of the gel)×the total volume (l) of the extracted crude protein. […]
The obtained data are shown as the mean the standard deviation (SD) of the three tests. […] A statistic difference was determined at a statistic significance of p<0.05 via analysis of variance (ANOVA) and the Tukey's honestly significant difference (HSD) test.

[4] = tested on: YFP-expressing Arabidopsis thaliana leaf; assay: Incorporation of carrier peptide/protein complex into cells (CLSM); format: in vivo; conditions: ADH-RhB alone, absence of carrier peptide, data not shown
Description: as §2
Incorporation of proteins into cells was quantitatively assayed using a confocal laser scanning microscope (CLSM, Carl Zeiss, Oberkochen, Germany). Intracellular delivery of the peptide/BSA-RhB complex or the peptide/ADH-RhB complex to an YFP-expressing Arabidopsis thaliana leaf was observed by detecting the YFP fluorescence at the excitation light of 488 nm and detecting the RhB fluorescence at the excitation light of 555 nm.

BSA-RhB: bovine serum albumin labeled with rhodamine B isothiocyanate, 4 RhB molecules per BSA [reference compound]
Zeta potential [1]: −35.3±1.5 mV
Hydrodynamic diameter [2]: 92±2 nm
BSA-RhB extracted from the leaf ([3]; with or without carrier peptide): extracted from the leaf only when the carrier peptide was used

KKLFKKILKYLKHKHKHKHKHKHKHKHKH (SEQ ID NO: 24) [BP100(KH)9, carrier peptide]
peptide/protein molar ratio at which the amount of the collected protein was the greatest [3]: 5

KKLFKKILKYLKKLFKKILKYLKKKKKKKK (SEQ ID NO: 23) [(BP100)2K8, carrier peptide, fusion of BP100 and oligolysine]
peptide/protein molar ratio at which the amount of the collected protein was the greatest [3]: 10
protein delivery capacity (BSA-RhB extracted from leaf) ([3]; all peptide/protein molar ratios (1-25)): superior to that of the BP100(KH)9 fusion peptide

B1: ADH-RhB: alcohol dehydrogenase (150 kDa) labeled with rhodamine B isothiocyanate, 6 RhB molecules per ADH (conjugate)
chain: SIPETQKGVIFYESHGKLEYKDIPVPKPKANELLINVKYSGVCHTDLHAWHGDWPLPVKLPLVGGHEGAGVVVGMGENVKGWKIGDYAGIKWLNGSCMACEYCELGNESNCPHADLSGYTHDGSFQQYATADAVQAAHIPQGTDLAQVAPILCAGITVYKALKSANLMAGHWVAISGAAGGLGSLAVQYAKAMGYRVLGIDGGEGKEELFRSIGGEVFIDFTKEKDIVGAVLKATDGGAHGVINVSVSEAAIEASTRYVRANGTTVLVGMPAGAKCCSDVFNQVVKSISIVGSYVGNRADTREALDFFARGLVKSPIKVVGLSTLPEIYEKMEKGQIVGRYVVDTSK
ADH-RhB signal in leaf [4]: not detected
Zeta potential [1]: −43.1±1.1 mV
Hydrodynamic diameter [2]: 168±7 nm
